Measured values reported in patent US20190284293A1 (Bristol-Myers Squibb, published 2019).
Where a chain is given by its changes, count along the chain named. Where “and” joins values, the source holds several entries; their conditions need not be identical. Identical values can stand only once.

T1: rhCD73 bound to his-tag magnet beads (human, UniProt P21589 27-547, limits assumed)
T1 sequence: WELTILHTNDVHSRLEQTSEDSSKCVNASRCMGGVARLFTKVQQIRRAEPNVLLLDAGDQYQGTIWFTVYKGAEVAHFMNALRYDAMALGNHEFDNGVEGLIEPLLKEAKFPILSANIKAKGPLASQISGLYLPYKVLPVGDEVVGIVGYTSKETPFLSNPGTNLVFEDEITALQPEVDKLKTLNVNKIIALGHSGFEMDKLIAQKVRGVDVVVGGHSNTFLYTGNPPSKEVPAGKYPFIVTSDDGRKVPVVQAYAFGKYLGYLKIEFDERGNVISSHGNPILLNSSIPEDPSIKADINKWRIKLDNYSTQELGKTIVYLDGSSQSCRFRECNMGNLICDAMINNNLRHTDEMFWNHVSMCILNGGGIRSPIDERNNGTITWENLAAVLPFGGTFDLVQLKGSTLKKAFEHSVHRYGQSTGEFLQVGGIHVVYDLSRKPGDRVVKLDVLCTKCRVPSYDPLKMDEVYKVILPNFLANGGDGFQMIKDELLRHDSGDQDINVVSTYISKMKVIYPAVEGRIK

T2: cyno CD73, Sino Biological Inc Cat#90192-C08H, bound to his-tag magnet beads (cynomolgus, UniProt P21589 27-547 (human entry))
T2 chain: T1 sequence with M199T, T350A, V466I

T3: human CD73 on cells (human, UniProt P21589 27-549)
T3 sequence: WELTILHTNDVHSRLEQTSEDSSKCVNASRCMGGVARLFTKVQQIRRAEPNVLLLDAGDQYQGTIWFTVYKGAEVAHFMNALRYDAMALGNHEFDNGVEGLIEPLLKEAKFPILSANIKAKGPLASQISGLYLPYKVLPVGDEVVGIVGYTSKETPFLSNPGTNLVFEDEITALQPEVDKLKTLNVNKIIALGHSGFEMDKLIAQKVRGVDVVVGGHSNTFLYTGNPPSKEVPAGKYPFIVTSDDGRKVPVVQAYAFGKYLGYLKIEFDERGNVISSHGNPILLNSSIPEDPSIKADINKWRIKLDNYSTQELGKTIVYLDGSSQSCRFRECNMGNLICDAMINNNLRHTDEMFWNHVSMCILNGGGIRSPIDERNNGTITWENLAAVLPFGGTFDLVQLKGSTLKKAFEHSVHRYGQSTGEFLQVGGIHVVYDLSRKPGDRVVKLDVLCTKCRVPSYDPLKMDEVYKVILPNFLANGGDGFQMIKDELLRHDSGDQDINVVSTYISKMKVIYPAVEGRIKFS

T4: cynomolgus CD73 on transfected CHO cells (cynomolgus, UniProt P21589 27-549 (human entry))
T4 construct: also called CHO-cynoCD73; CHO-Cynomolgus CD73 transfectants
T4 chain: T3 sequence with M199T, T350A, V466I

T5: N-hCD73-his (N-terminal domain of human CD73, residues 26-336, His tag) (human, UniProt P21589 26-336)
T5 sequence: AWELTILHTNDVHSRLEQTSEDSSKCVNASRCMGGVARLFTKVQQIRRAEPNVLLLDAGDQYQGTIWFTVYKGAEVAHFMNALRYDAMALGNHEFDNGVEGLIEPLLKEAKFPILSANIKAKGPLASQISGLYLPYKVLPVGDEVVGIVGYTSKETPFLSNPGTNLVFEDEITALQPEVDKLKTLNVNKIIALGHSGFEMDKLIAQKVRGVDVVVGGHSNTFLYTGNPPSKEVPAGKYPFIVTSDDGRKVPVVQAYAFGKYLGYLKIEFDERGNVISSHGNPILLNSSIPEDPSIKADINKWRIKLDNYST

B1: CD73.4-IgG2-C219S (antibody)
heavy: QVQLVESGGGVVQPGRSLRLSCAASGFTFSNYGMHWVRQAPGKGLEWVAVILYDGSNKYYPDSVKGRFTISRDNSKNTLYLQMNSLRAEDTAVYYCARGGSSWYPDSFDIWGQGTMVTVSSASTKGPSVFPLAPCSRSTSESTAALGCLVKDYFPEPVTVSWNSGALTSGVHTFPAVLQSSGLYSLSSVVTVPSSNFGTQTYTCNVDHKPSNTKVDKTVERKSCVECPPCPAPPVAGPSVFLFPPKPKDTLMISRTPEVTCVVVDVSHEDPEVQFNWYVDGVEVHNAKTKPREEQFNSTFRVVSVLTVVHQDWLNGKEYKCKVSNKGLPAPIEKTISKTKGQPREPQVYTLPPSREEMTKNQVSLTCLVKGFYPSDIAVEWESNGQPENNYKTTPPMLDSDGSFFLYSKLTVDKSRWQQGNVFSCSVMHEALHNHYTQKSLSLSPG
light: not shown
notes: also called CD73.4-IgG2CS; CD73.4-IgG2.3
B2: 11F11 (antibody, human IgG2, kappa, V domains shown)
VH: QVQLVESGGGVVQPGRSLRLSCATSGFTFSNYGMHWVRQAPGKGLEWVAVILYDGSNKYYPDSVKGRFTISRDNSKNTLYLQMNSLRAEDTAVYYCARGGSSWYPDSFDIWGQGTMVTVSS
VL: DIQMTQSPSSLSASVGDRVTITCRASQGISSWLAWYQQKPEKAPKSLIYAASSLQSGVPSRFSGSGSGTDFTLTISSLQPEDFATYYCQQYNSYPLTFGGGTKVEIKR
notes: Human IgG2; also called 11F11-2

Experiments:
[1] = target: T1, rhCD73 bound to his-tag magnet beads; experiment: cell-based or functional assay
[2] = target: T2, cyno CD73, Sino Biological Inc …; experiment: cell-based or functional assay
human CD73 on cells [3] = target: T3, human CD73 on cells; experiment: cell-based or functional assay
human CD73 on cells [4] = target: T3, human CD73 on cells; experiment: cell-based or functional assay; remark: listed apart in the source
human CD73 on cells [5] = target: T3, human CD73 on cells; experiment: flow cytometry, Calu6 cells
Description: (§1) Titration binding curves were produced with CD73 antibodies on Calu6 (CD73 endogenous expressors; human pulmonary adenocarcinoma cell line), DMS114 (CD73 negative; human small cell lung cancer cell line), CHO-cynoCD73 (cynoCD73-transfected) and CHO-K1 (cynoCD73 negative), cells using Alexa Fluor® 647 Goat Anti-Human IgG (H+L) as a secondary antibody, Invitrogen Cat#A-21445, using the following method: 100000 cells were plated in 100 uL PBS+2% FBS per well and blocked for 20 min. Using a U-bottom 96-deep well plate, volumes of antibody and PBS+2% FBS were combined as dictated by Table 12 below.
(§2) An 8-point serial dilution was performed by diluting a sixth of the volume (90 uL) into […], PBS+2% FBS. The cell plate was spun down for 5 minutes at 1500 rpm. 100 uL of diluted antibody was added per well of the plate. 100 uL PBS+2% FBS were added to all other wells. […] The plates were spun down at 1500 rpm for 5 min and washed in 200 uL PBS+2% FBS per well. The plates were washed again, resuspended in 200 uL 2% FBS in PBS per well and the samples were run.

[6] = target: T4, cynomolgus CD73 on transfected CHO cells; experiment: flow cytometry, CHO-cynoCD73 cells
Description: as §1, §2

human CD73 on cells [7] = target: T3, human CD73 on cells; experiment: flow cytometry, FITC-mAb, human B cells, donor D316
Description: (§3) Binding of CD73.4 antibody to human B and T cells was also determined. Peripheral blood mononuclear cells (PBMC) were isolated with Lympholyte-H cell separation gradient media. […] Cells from both donors were pooled for the unstained and FMO (Fluorescence minus one) control samples.

human CD73 on cells [8] = target: T3, human CD73 on cells; experiment: flow cytometry, FITC-mAb, human B cells, donor D329
Description: as §3

human CD73 on cells [9] = target: T3, human CD73 on cells; experiment: flow cytometry, FITC-mAb, human T cells, donor D316
Description: as §3

human CD73 on cells [10] = target: T3, human CD73 on cells; experiment: flow cytometry, FITC-mAb, human T cells, donor D329
Description: as §3

human CD73 on cells [11] = target: T3, human CD73 on cells; experiment: binding titration on Calu6 cells, average of 2-6 experiments
human CD73 on cells [12] = target: T3, human CD73 on cells; experiment: cell-based or functional assay; remark: listed apart in the source
human CD73 on cells [13] = target: T3, human CD73 on cells; experiment: cell-based or functional assay; remark: listed apart in the source
[14] = target: T5, N-hCD73-his (N-terminal domain of human …); experiment: SPR, mAb captured on protein A
Description: (§4) For these experiments, protein A (Pierce) was immobilized to a density of 3000-4000 RU on flow cells 1-4 of a CM5 sensor chip (GE Healthcare) using standard ethyl(dimethylaminopropyl) carbodiimide (EDC)/N-hydroxysuccinimide […] chemistry, with ethanolamine blocking, in a running buffer of 0.01 M HEPES pH 7.4, 0.15 M NaCl, 3 mM EDTA, 0.005% v/v tween 20. […] The running buffer for the kinetic experiments was 10 mM sodium phosphate, 130 mM sodium chloride, 0.05% tween 20, pH 7.1. The surfaces were regenerated after each cycle using two 30 s pulses of 10 mM glycine pH 1.5 at a flow rate of 30 μl/min. Sensogram data was double-referenced and then fitted to a 1:1 Langmuir model using Biacore T100 evaluation software v2.0.4, to determine the association rate constant (ka), the dissociation rate constant (kd), and the equilibrium dissociation constant (KD).

[15] = target: T5, N-hCD73-his (N-terminal domain of human …); experiment: SPR, comparison of all IgG2 molecules
Description: as §4

| Binder | EC50 (nM), inhibition of bead-bound human CD73 enzymatic activity [1] | EC50 (nM), enzymatic inhibition of cyno CD73 (bead-bound) [2] | EC50 Calu6 inhibition (human CD73 on cells [3]) | CD73 Inhibition EC50 (nM), cAMP assay, Calu6 (human CD73 on cells [4]) | EC50 (human CD73 on cells [5]) | EC50 [6] | IC50 (human CD73 on cells [7]) | IC50 (human CD73 on cells [8]) | IC50 (human CD73 on cells [9]) | IC50 (human CD73 on cells [10]) | EC50 (human CD73 on cells [11]) | EC50 SKMEL24 inhibition (human CD73 on cells [3]) | Ymax, cAMP HTRF assay (percent of 100 nM 11F11 control) (human CD73 on cells [12]) | EC50 (nM), high-content internalization assay, Calu6, 2 h (human CD73 on cells [13]) | Ymax, high-content internalization assay (percent of 100 nM 11F11) (human CD73 on cells [13]) | Kd [14] | Kd [15] |
| --- | --- | --- | --- | --- | --- | --- | --- | --- | --- | --- | --- | --- | --- | --- | --- | --- | --- |
| B1 | 2.72 nM | 3.66 nM | 0.34 nM | 1.56 nM and 1.78 nM | 0.49 nM | 0.34 nM | 0.159 nM | 0.0777 nM | 0.18 nM | 0.135 nM | 0.49 nM | – | – | – | – | – | – |
| B2 | 3.98 nM | – | – | – | – | 0.58 nM | – | – | – | – | – | 3.15 nM | 76% | 0.58 nM | 98% | 0.56 nM and 1.6 nM | 1.1 nM |
